What was measured:
[1] = test system: MS2 coat protein; assay: apparent KD of MS2 coat protein, switch OFF state (with FMN for OFF switches, without FMN for ON switches); designed switch direction (-1 OFF switch, 1 ON switch): 1; higher = weaker reporter binding; conditions: FMN input: 0 or 200 uM; Eterna round: R93 (includes R88 designs)
Procedure, shortened: (§1)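 Designed RNA switches were transcribed on-chip from Illumina sequencing clusters and titrated with SNAP-549-labelled MS2 coat protein in twofold steps from 0.7 or 1.5 nM up to 3 µM. Each step lasted 0.8–1.5 h at first and 10–20 min by the end, in 100 mM Tris-HCl pH 7.5, 80 mM KCl and 4 mM MgCl2, without or with constant ligand. Apparent KD is the median, for each design, of fits to normalised cluster binding curves.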

[2] = test system: MS2 coat protein; assay: apparent KD of MS2 coat protein, switch ON state; designed switch direction (-1 OFF switch, 1 ON switch): 1; higher = weaker reporter binding; conditions: FMN input: 0 or 200 uM; Eterna round: R93 (includes R88 designs)
Procedure, shortened: as §1

| Sequence | apparent KD of MS2 coat protein [1] | apparent KD of MS2 coat protein [2] |
| --- | --- | --- |
| CAUAGACAUGAGGAUCACCCAUGUAGAAUUAUGGGAGGAUAUACAAAGACGAGAGUCAGAGUAGAAGGCCUAGGAC [salish99-ss1-164] | 28.3 nM | 18.9 nM |
| GAAAAACAUGAGGAUCACCCAUGUAGAAAUAUGGGAGGAUAUACAAGGACGAAAGUCAAGGUAGAAGGCCUAAAAG [Mat - Same State 1 - Eli mod - 26] | 98.6 nM | 33.8 nM |
| AAAAAACAUGAGGAUCACCCAUGUGAGAACAUGGGAGGAUAUACGAGGACGAGAGUCAAGGUAGAAGGCCUAAGAA [Garnet 68] | 22.8 nM | 268 nM |
| CGAAGACAUGAGGAUCACCCAUGUGGGAUUAUGGGAGGAUAUACAAAGACGAGAGUCAGAGUAGAAGGCCUAGGAU [salish99-ss1-125(!)] | 47.8 nM | 22.4 nM |
| AUAAAACAUGAGGAUCACCCAUGUCAGAAAUGGCAAGGAUAUAGAAAAUAAAAAUAAAAACUAGAAGGUGCAAAAU [Meechl SS1 R2 m1] | 198 nM | 74.9 nM |
| GGGAGACAUGAGGAUCACCCAUGUGAGAAGAGGCGAGGAUAUCGAAAAAAAAAAAAAAAACGAGAAGGCGCGAGAC [salish99-SS1-006] | 94.5 nM | 33.6 nM |
| CGAGAGGAGAGAGAGGAUAUCCAAAGGAAAACAUGAGGAUCACCCAUGUAGAAGGUAGGAGAUUGGGAGAAGGCUCAAGAAGAAG [salish99-ss2-159] | 26 nM | 18.2 nM |
| AAAAAAAAAAGUCAGGAUAUGCAGGGCGGGACAUGAGGAUCACCCAUGUGGCGGAAAAAAAAAAAGCAGAAGGGACGAAUAAAAAA [William Edwards Deming] | 42.8 nM | 23.1 nM |
| AUAAAUAAAGAUCAGGAUAUUAUAAAGAUAACAUGAGGAUCACCCAUGUAAAACAAAAUUAUGGGUAAGAAGGGAUCAAAUAAAU [SS2 M 20] | 184 nM | 46.9 nM |
| AAAUAAAUGACUAAGGAUAUUUCAGAGAAAACAUGAGGAUCACCCAUGUAAUAAUAAAAAGGGUGAAAGAAGGUAGUCAACAAAC [74%, More Paria 4] | 41 nM | 17.1 nM |
| AAUAUAUUAAGUGAGGAUAUCAUAGGAAAAACAUGAGGAUCACCCAUGUGGGAAACCUGGUCGGGUGAGAAGGCACUUAAUAUAU [Samwise Clockwise 30 - Jieux - Same State 2] | 217 nM | 37.5 nM |
| GGGAGGAAGAGAGAGGAUAUCCAAAGGAAAACAUGAGGAUCACCCAUGUAAAAGGUAGGAAAUUGGGAGAAGGCUCAAGAGAUGG [salish99-ss2-052] | 39.2 nM | 59 nM |
| AAAAGACAUGAGGAUCACCCAUGUAAAGACAUAGGAGGAUAUGUCUGGAAAAAAGACUGGACAGAAGGCCUUUGUC [SS1 - 62] | 20.4 nM | 20 nM |
| CAGAUACAUGAGGAUCACCCAUGUUAGGUAGAACAAGGAUAUCUAGAUAGAUAAAAAUAUAGAGAAGGUGUAUAAC [JR_SS001_Sub207] | 24.2 nM | 19.8 nM |
| AAAAGACAUGAGGAUCACCCAUGUGAAAACGUAGGAGGAUAUGUAUGGAAACCAGACUGUACAGAAGGCCUUUGUC [SS1 - 75] | 23.3 nM | 23 nM |
| UAAUAAUAAACCAAGGAUAUGGAGUAUAGCACAUGAGGAUCACCCAUGUGUAGCGUGGGUUAGUACCAGAAGGUGGAGUGAAAUG [JR_SS002_Sub1001] | 82.8 nM | 87.8 nM |
| AGAAAUAAAAGAGAGGAUAUCCAAAAGAAAACAUGAGGAUCACCCAUGUGAAACAAAACAAAAUGGGAGAAGGCUCAAAAUAAGA [Topaz 16] | 137 nM | 31 nM |

| Sequence | apparent KD of MS2 coat protein [1] | apparent KD of MS2 coat protein [2] |
| --- | --- | --- |
| AUACAAACGUAUGAGGAUAUCCUUAAUAAAACAUGAGGAUCACCCAUGUGAAUAAAAUAACAAUUGGAGAAGGCAUACGUACAAU [Mat - Same state - Malcolm Mod - D137] | 18.9 nM | 16.6 nM |
| AAAAAACAUGAGGAUCACCCAUGUAAAAAAAUGGGAGGAUAUACAAAAACAAAAAAAAAAGUAGAAGGCCUGAAAA [same state 9] | 419 nM | 41.3 nM |
| AAGAAACAUGAGGAUCACCCAUGUAGAAAUAUGGGAGGAUAUACGAGGACGAAAGUCAAAGUAGAAGGCCUAAGAA [Mat - Same State 1 - Meechl mod - D130] | 66.9 nM | 19.6 nM |
| AAAAGACAUGAGGAUCACCCAUGUAGGCCAAAGCAAGGAUAUAGGCCACAGGGACGUGAACUAGAAGGUGCACGGC [Zainlebe] | 135 nM | 30.8 nM |
| AAACCACAUGAGGAUCACCCAUGUGAAAUACAUACAGGAUAUGCGAAAAGAAACAAAGAAGCAGAAGGGUGAAAAA [75%, Ex sub1, 18] | 25.4 nM | 15.9 nM |
| CGAAAGGAGAGAGAGGAUAUCCAAAGGAAAACAUGAGGAUCACCCAUGUAGAAGGUAGGAGAUUGGGAGAAGGCUCAAGCAAAAC [salish99-ss2-157] | 18.6 nM | 15.9 nM |
| AAAAUAUAAACAGAGGAUAUCCAAAGAACCACAUGAGGAUCACCCAUGUAAAGAAAGAAUAAGUGGGAGAAGGUUGAAAUAAUAA [Designing denovo 26] | 74.9 nM | 49.9 nM |
| CAGCGCUGUCGAGAGGAUAUGCGGUGAAGGACAUGAGGAUCACCCAUGUAAGCGAUAGCAUUACGGUAGAAGGCUCUGCAGCUGC [Ceriso] | 143 nM | 95.7 nM |
| AAAACCUGCGUCGAGGAUAUGUAGCCCACUACAUGAGGAUCACCCAUGUGGAUCUUACUGGGUCGACAGAAGGUGAAAGUAAGGC [Ustionon] | 39.4 nM | 49.3 nM |
| GAGAAACAUGAGGAUCACCCAUGUAGAAAUAUGGGAGGAUAUACAAAGACGAAAGUCAAAGUAGAAGGCCUAAAAG [77%, Mat - Mod of Eli - With 1 more G's] | 55.9 nM | 26 nM |
| AGUCAACAUGAGGAUCACCCAUGUCUGAGGGCAUGAGGAUAUCUAGAUGGGCAGCAUGAUAGAGAAGGCAUGCGCC [Betea] | 199 nM | 185 nM |
| AAUAUACAUGAGGAUCACCCAUGUUAGGUGGGUCAAGGAUAUCAAAAUAAAUAAAGAACAUGAGAAGGUGAAUAAA [JR_SS001_Sub018] | 161 nM | 207 nM |
| GACAAACAUGAGGAUCACCCAUGUAGAAAUAUGGGAGGAUAUACACAGACGAAAGUCAAAGUAGAAGGCCUAAAAG [77%, Mat - Mod of Eli - With 2 more C's] | 137 nM | 28.5 nM |
| GGGAGACAUGAGGAUCACCCAUGUGAGAAGAGGCGAGGAUAUCGAAAGAAAGAAGAGAAACGAGAAGGCGCGAGCA [salish99-SS1-052] | 60.4 nM | 39 nM |
| CCUAGGAAGAGAGAGGAUAUCCAAAGGAAAACAUGAGGAUCACCCAUGUAAAAGGUAGGAAAUUGGGAGAAGGCUCAAGAGAGAG [salish99-ss2-088] | 23.9 nM | 20.9 nM |
| GAAAAACAUGAGGAUCACCCAUGUGGAAAUAUGGGAGGAUAUACGAAGACGAAAGUCAAAGUAGAAGGCCUAAAAG [Same State 1.4c (Mat - Mod of Eli - )] | 83.8 nM | 22 nM |

— the supplement of paper PMC9170038
